Experimental data reported in the RNAGym collection of RNA variant scans (doi:10.1073/pnas.2313332121).

B1: TPR t1 (parent)
chain: GACCAAUCUGCCCUCAGAGCUCGAGAACAUCUUCGGAUGCAGAGGAGGCAGGCUUCGGUGGCGCGAUAGCGCCAACGUCCUCAACCUCCAAUGCAUCCCACCACAUGAUGAUGCCUGAAGAGCCUUGGUUUUUUG

Variants of: B1
Assay: polymerase ribozyme fitness, log enrichment relative to wild type (log ratio); higher = more active; in vitro selection for triplet polymerase activity
Summary of the method: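 For each subunit of a heterodimeric triplet polymerase ribozyme, a mutant library was built by PCR and transcribed, then taken through a single in vitro selection round in triplicate. Selection involved annealing to a biotinylated primer, the partner subunit and triplets, incubation frozen at −7 °C, gel excision of extended constructs, capture on streptavidin beads and RT-PCR. Genotypes were retained after Illumina sequencing of inputs and outputs only with ≥10 input reads and ≥1 read in each output. Fitness is defined as the logarithm of a genotype's enrichment relative to wild-type enrichment, using inverse-variance-weighted averages across replicates, with the logarithm taken to base 2.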

Variant	polymerase ribozyme fitness (log ratio)
GACCAAUCUGCCCUUAGAGCUCGAGAACAUCUUCGGAUGCAGAGGAGGCAGGCUUCGGUGGCGCGAUAGCGCCAACGUCCUCAACCUCCAAUGCAUCCCACCACAUGAUGAUGCCUGAAGAGCCUUGCUUUUUUG [C15U G128C]	-3.18
GACCAAUCUGCCCUCUGAGCUCGAGAACAUCUUCGGAUGCAGAGGAGGCAGGCUUCGGUGGCGCGAUAGCGCCAACGUCCUCAACCUCCAAUGCAUCCCACCACAUGAUGAAGCCUGAAGAGCCUUGGUUUUUUG [A16U U112A]	0.0459
GACCAAUCUGCCCUCAGAGCUCGAGAACAUCUUCGGAUGCAUAGGAGGCAGGUUUCGGUGGCGCGAUAGCGCCAACGUCCUUAACCUCCAAUACAUCCAACCACAUUAUGAUGGCUGAAGAGGCAUAGUUUUUUG [G42U C53U C82U G93A C99A G107U C114G C123G U125A G127A]	-4.42
GACCAAUCUGCGCUCAGAGCUCGAGAACAUCUUCGGAUGCAGAGGAGGCAGGCUUCGGUGGCGCGAUAGAGCCAACGUCCUCAACCUCCAAUGCAUCCCACCACAUGAUGAUGCCUGGAGAGCCUUGGUUUUUUG [C12G C70A A118G]	-0.792
GACCAAUCUGCCCUCAGAGCUCGAGAGCAUCUUCGGAUGCAGAGGAGGCAGGCUUCGGUGGCGCGAUAGCGCCAACGUCCUCAACCUCCAAUGCAUCCCACCACUUGAUGAUGCCUGAAGAGCCUUGGUUUUUUG [A27G A105U]	-4.91
GACCAAUCUGCCCUCAGAGCUCGAGAACAUCUUCGGAUGCAGAGGAGGCAGGCUUCGGUGGCGCGAUAGAGCCAACGUCCACAACCUCCAAUGCAUCCCACCACAUGAUGAUGCCUGAAGAGCCUUGGUUUUUUG [C70A U81A]	-2.88
GACCAAUCUGCCCUCAGAGUUCGAGAACAUCUUCGGAUGCAGAGGAGGCAGGCUUCGGUGGCGCGAUAGCGCCAACAUCCUCAUCCUCCAAUGCAUCCCACCACAUGAUGAGGCCUGAAGAGCCUUGGUUUUUUG [C20U G77A A84U U112G]	-2.88
GACCAAUCUGCCCUCAGAGCUCGAGAACAUCUUCGGAUGCAGAGGAGGCAGGCUUGGGUGGCGCGAUAGAGCCAACGUCCUCAACCUCCAAUGCAUCCCACCACAUGAUGAUGCCUGAAGAGCCUUGGUUUUUUG [C56G C70A]	-3.64
GACCAAUCUGCCCUCAGAGCUCGAGAACAUCUUCGGAUGCAGAGGAGGCCGGGUUCGGUGGCGCGAUAGCGCCAACGUCCUCAACUUUCAAUGCAUCCCACCACAUUAUGAUGCCUGAAGUGCCUUGGUUUUUUG [A50C C53G C86U C88U G107U A121U]	-5.3
GACCAAUCUGCCCUCAGAGCUCGAGAACAUCUUCGGAUUCAGAGGAGGCAGGCUUCGGUGACGCGAUAGCGCCAACGUCCUCAACCUCCAAUGCAUCCCACCACAUGAUGAUGCCUGAAGAGCCUUGGUUUUUUG [G39U G61A]	-0.103
GACCAAUCUGCCCUCAGAGCUCGAGAACAUCUUCGGAUGCAGAGGAGGCAGGCUGCGGUGGCGCGAUAGCGCCAACGUCCUCAACCUCCAAUGCAUCCCACCACAUGAUGAUGCCUGAAGAGGCUUGGUUUUUUG [U55G C123G]	2.06
GUCCAAUCUGCCCUCAGAGCUCGAGAACAUCUUCGGAUGCAGAGGAGGCAGGCUUCGGUGGCGCGAUAGCGCCAACGUCCUCAACCUCCAAUGCAUCCCACCACAAGAUGAUGCCUGAAGAGCCUUGGCUUUUUG [A2U U106A U129C]	-1.74
GACCAAUCUGCCCUCAGAGCUCGAGAACAUCUUCUGAUGCAGAGGAGGCAGGCCUCGGUGGCGGGAUAGCGCCAAGGUCCUCAAUCUCCAAUGCAUCCCACCACAUGAUGAUUCCUGAAGAGCCUUGGUUUUUUG [G35U U54C C64G C76G C85U G113U]	-7.14
GACCCAUCUGACCUCAGAGCUCGAGAACAUCUUCGGAUGCAGAGGAGGCAGGCAUCGGUGGCGCGAUAGCGCCAACGUCCUCAACCUCCAAUGCAUCCCACCAUAUGAUGAUGCCUGAAGAGCCUUGGUUUUUUG [A5C C11A U54A C104U]	-0.94
GACCAAUCUGCCCUCAGAGCGCGAGAACAUCUUCGGAUGCAGAGGAGGCAGGCUUCGGUGGAGCGAUAGCGCCAACGUCCUCAACCUCCAAUGCAUCCCACCACAUGAUGAUGCCUGAAGAGCCUUGGUUUUUUG [U21G C62A]	-2.26
GACCAAUCUGCCCACAGAGCUCGAGAACAUCUUCGGAUGCAGAGGAGACAGGGUUCGGUGGCGUGAUAGCGCCAACGUCCUCAACCUCCAAUGCAUCCCACCACAUGAUGAUGCCUGAAGAGCCUUGGUUUUUUG [U14A G48A C53G C64U]	-2.48
GACCAAUCUGCCGUCAGAGCUCGAGAACAUCUUCGGAUGCAGAGGAGGCAGGCUUCGGUGGCGCGAUAGCGCCAACGUCCUAAACCUCCAAUGCAUCCCACCACAUGAUGAUGCCUGAAGAGCCUUGGUUUUUUG [C13G C82A]	-2.47
GACCAAUCUGCCCUCAGAGCUUGAGAACAUCUUCGGAUGCAGAGGAGGCAGGCUUCGGUGGCCCGAUAGCGCCAACGUCCUCAACCUCCAAUGCAUCCCACCACAUGAUGAUGCCUGAAGAGCCUUGGUUUUUUG [C22U G63C]	-4.47
GACUAAUCUGCCAUCAGAGCUCGAGAACAUCUUCGGAUGCAGAGGAGGCAGGUUUCGGUGGCGCGAUAGCGCCAACGUCCUCAACCUCCAAUGCAUCCCACCACAUGAUGAUGCCUGAAGAGCCUUGGUUUUUUG [C4U C13A C53U]	-2.94
GACCAAUCUGCCCUCAGAGCUCGAGAACAUCUUCGGAUGCAGAGGAGGCAGGCUUCGGUGGCGUGAUAGCGCCAACGUCCUCAACCUCCAAUGCAUCCCACCACAUGAUGAUGCCUGGAGAGCCUUGGUUUUUUG [C64U A118G]	-1.18
GACCAAUCUGCCCUCAGAGCUCGAGAACAUCUUCGGAUGCAGAGGAGGCAGGCUUCGGUGGCACGAUAGCGCAAACGUCCUCAACCUCCAAUGCAUCCCACCACAUGAUGAUGCCUGAAGAGCCUUGGUUUUUUG [G63A C73A]	-1.93
